To fix the notation:
B1: Compound 10 (peptide)
peptide: Ac-RVRHA
modifications: also: C-terminal Ala as alpha-ketoamide, -CO-CO-NH-CH2-(2,5-dimethylphenyl)
notes: Structure is printed only as a drawing; Tail inferred from C38H60N14O7, MW 824.99; also called Cpd No. 10
B2: Compound 11 (peptide)
peptide: Ac-RVRHA
modifications: also: C-terminal Ala as alpha-ketoamide, -CO-CO-NH-(CH2)4-Ph
notes: Structure is printed only as a drawing; Tail inferred from C39H62N14O7, MW 839.02; also called Cpd No. 11
B3: Compound 9 (peptide)
peptide: Ac-RVRHA
modifications: also: C-terminal Ala as alpha-ketoamide, -CO-CO-NH-(CH2)2-Ph
notes: Structure is printed only as a drawing; Tail inferred from monoisotopic mass 810.461290, MW 810.96, and the NMR; It has the same mass as compound 5; also called Cpd No. 9

No end group written: not given here.

One assay concerns the target T1, E. coli rhomboid protease GlpG (E. coli, UniProt P09391 1-276, limits assumed).
T1 construct: Enzyme of the in vitro IC50 and Ki assay (as described in Ticha et al., 2017) and of the co-crystal structures; also called model rhomboid protease GlpG
T1 sequence (looked up): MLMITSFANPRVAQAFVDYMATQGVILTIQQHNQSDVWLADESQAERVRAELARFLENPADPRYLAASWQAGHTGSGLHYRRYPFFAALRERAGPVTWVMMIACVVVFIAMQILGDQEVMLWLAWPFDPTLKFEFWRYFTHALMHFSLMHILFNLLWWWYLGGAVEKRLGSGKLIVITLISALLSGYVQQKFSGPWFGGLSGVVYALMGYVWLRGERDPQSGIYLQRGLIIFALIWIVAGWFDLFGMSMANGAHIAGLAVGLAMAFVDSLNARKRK
As to the kind of experiment: in vitro inhibition of rhomboid protease GlpG, as described (Ticha et al., 2017); printed as a Ki range.
Regarding B1, the inhibitory constant (Ki) (in general, the equilibrium dissociation constant of an inhibitor or competing ligand from its target) lay within 10 to 100 nM.
Same read-out and setting: next, B2: 10 to 100 nM; B3: 10 to 100 nM.

In another assay the target is T1, E. coli rhomboid protease GlpG. As to the kind of experiment: cell-based or functional assay.
As for Ac-RVWHA-{keto‑C(:O)NH-4‑phenylbutyl} [Compound 16], the “IC50 (µM), measured in vitro as described (Ticha et al., 2017)” value (from here on “IC50 (µM), measured in vitro”) turned out to be 0.77 µM.
The same measure, in the same setting: as for B1, the figure is 0.18 µM; as for Ac-RVRHA-{keto‑C(:O)NH-1‑phenylethyl} [Compound 5], 13.8 µM.
In the case of Ac-Arg-His-Ala (not fully specified (C-terminus)) [Compound 13], the “IC50 (µM), measured in vitro” value was 9.05 µM.
On the same count and under the same terms, as for Ac-RVRHA-{keto‑C(:O)NH-pentyl} [Compound 8], the figure is 1.08 µM.
In the case of B2, the “IC50 (µM), measured in vitro” value turned out to be 0.15 µM.
Still for that read-out and setting: next, Ac-His-Ala (not fully specified (C-terminus)) [Compound 14]: 48 µM; Ac-RVRHA-{keto‑C(:O)NH-benzyl} [Compound 4]: 7.64 µM; Ac-RVRHA (not fully specified (C-terminus)) [Compound 3]: 5.01 µM.
As for B3, the “IC50 (µM), measured in vitro” value worked out at 0.34 µM.
On the same count and under the same terms, next, Ac-RVRHA-{keto‑C(:O)NH-isopropyl} [Compound 2]: 12.4 µM; Ac-RVRHA-{keto‑C(:O)NH2} [Compound 1]: 203 µM; Ac-RVRHA-{keto‑C(:O)NH-ethoxycarbonylmethyl} [Compound 6]: 4.24 µM.
On the same count and under the same terms, as for Ac-RVRHA-{keto‑C(:O)NH-neopentyl} [Compound 7], the figure is 2.15 µM.

Values taken from patent US20200095278A1 (USTAV ORGANICKE CHEMIE A BIOCHEMIE AV CR V V I, published 2020).
